In the assay the target is Flag-tagged full length Ack1 (human) (UniProt Q07912). Nature of the assay: co-IP; Cos7 cells transfected with FLAG-Ack1 alone or with HA-NKD or HA-KD; RIPA lysates (450-750 ug) incubated overnight at 4°C with FLAG M2 affinity gel, washed 5 times with RIPA buffer; blots with anti-HA and anti-FLAG; densitometry ratio HA-Ack1/Flag-Ack1.

“HA-tagged Ack1 NKD (amino terminus plus kinase domain) (from UniProt Q07912 1-385) (domain or fragment)”: the fold co-immunoprecipitation against HA-KD came to 3 fold.

The values are drawn from PMC2987765.
